Test results reported in publication PMC7187199, “Investigation of a New Type I Baeyer–Villiger Monooxygenase from Amycolatopsis thermoflava Revealed High Thermodynamic but Limited Kinetic Stability” (Chembiochem, 2020).

Experiments:
[1] = tested on: O=C1CCCCC1; experiment: purified protein; conditions: 100 μM NADPH, 50 mM Tris-HCl, 30 °C
[2] = target: T1, TmCHMO (Thermocrispum municipale, UniProt A0A1L1QK39); experiment: NADPH oxidation at […] nm; format: biochemical; conditions: 0.5 mM cyclohexanone, 100 μM NADPH, 10 μM FAD, 50 mM Tris-HCl, 30 °C
T1 sequence (A0A1L1QK39 1-541): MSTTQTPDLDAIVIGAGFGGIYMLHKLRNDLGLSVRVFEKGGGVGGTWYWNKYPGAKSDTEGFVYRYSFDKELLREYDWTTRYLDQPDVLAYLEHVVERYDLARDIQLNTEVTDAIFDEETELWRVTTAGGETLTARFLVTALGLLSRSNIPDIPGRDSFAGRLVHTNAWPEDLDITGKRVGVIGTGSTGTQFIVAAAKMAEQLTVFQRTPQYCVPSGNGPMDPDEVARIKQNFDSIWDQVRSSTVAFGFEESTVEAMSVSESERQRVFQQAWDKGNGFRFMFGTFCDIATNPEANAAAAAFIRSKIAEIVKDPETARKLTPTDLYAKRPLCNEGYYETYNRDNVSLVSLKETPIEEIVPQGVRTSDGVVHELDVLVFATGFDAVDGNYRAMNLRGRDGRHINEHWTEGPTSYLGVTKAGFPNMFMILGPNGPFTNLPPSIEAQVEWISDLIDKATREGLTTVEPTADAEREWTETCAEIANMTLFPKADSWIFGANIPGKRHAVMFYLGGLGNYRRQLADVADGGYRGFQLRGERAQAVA

[3] = target: T2, CHMOAcineto (Acinetobacter johnsonii, UniProt P12015); experiment: NADPH oxidation at […] nm; format: biochemical; conditions: 100 μM NADPH, 50 mM Tris-HCl, 30 °C
T2 construct: gene chnB
T2 sequence (P12015 2-543): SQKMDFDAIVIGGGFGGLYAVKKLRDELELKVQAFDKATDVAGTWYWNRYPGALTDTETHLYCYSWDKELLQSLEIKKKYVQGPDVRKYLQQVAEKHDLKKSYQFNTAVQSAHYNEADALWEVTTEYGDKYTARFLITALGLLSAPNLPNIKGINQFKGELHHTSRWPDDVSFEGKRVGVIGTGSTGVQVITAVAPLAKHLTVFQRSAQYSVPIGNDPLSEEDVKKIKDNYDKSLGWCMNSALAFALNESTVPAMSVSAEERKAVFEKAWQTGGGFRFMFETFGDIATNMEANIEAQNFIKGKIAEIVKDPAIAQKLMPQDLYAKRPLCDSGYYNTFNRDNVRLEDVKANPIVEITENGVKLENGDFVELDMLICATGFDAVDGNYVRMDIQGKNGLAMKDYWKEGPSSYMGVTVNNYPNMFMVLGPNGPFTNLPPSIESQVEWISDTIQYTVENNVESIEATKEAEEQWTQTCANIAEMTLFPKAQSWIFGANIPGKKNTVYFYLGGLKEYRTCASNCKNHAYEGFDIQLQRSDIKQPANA

Molecule | Km [1] [µM] | kcat [1] [s⁻¹] | NADPH oxidation at 340 nm [2] | Km [3] [µM]
BVMOFlava (Amycolatopsis thermoflava) | 0.53 ± 0.1 | 1.5 ± 0.1 | – | –
O=C1CCCCC1 [cyclohexanone] | – | – | The activity was comparable to that of TmCHMO | 6.74 ± 2
